Biological target: HLA-A*02:01 (Homo sapiens, UniProt P04439, D140Y/D185E/D98H/E176V/E277Q/G131W/G231S/I119V/I121R/I166T/I218V/L300P/L318F/N151K/N90K/P208A/P217A/Q86G/Q94H/R138H/R169H/T345S)
Assay: MHC binding assay (UV-ligand exchange, beta2m ELISA, peptide exchange yield)
Details: binding to HLA-A*02:01
Text: Candidate peptides for T cell based therapies according to the present invention were further tested for their MHC binding capacity (affinity). The individual peptide-MHC complexes were produced by UV-ligand exchange, where a UV-sensitive peptide is cleaved upon UV-irradiation, and exchanged with the peptide of interest as analyzed. Only peptide candidates that can effectively bind and stabilize the peptide-receptive MHC molecules prevent dissociation of the MHC complexes. To determine the yield of the exchange reaction, an ELISA was performed based on the detection of the light chain ([…]) of stabilized MHC complexes. The assay was performed as generally described in Rodenko et al. (Rodenko et al., 2006).
96 well MAXISorp plates (NUNC) were coated over night with 2 ug/ml streptavidin in PBS at room temperature, washed 4× and blocked for 1 h at 37° C. in 2% BSA containing blocking buffer. Refolded HLA-A*02:01/MLA-001 monomers served as standards, covering the range of 15-500 ng/ml. Peptide-MHC monomers of the UV-exchange reaction were diluted 100 fold in blocking buffer. Samples were incubated for 1 h at 37° C., washed four times, incubated with 2 ug/ml HRP conjugated anti-β2m for 1 h at 37° C., washed again and detected with TMB solution that is stopped with […]. Absorption was measured at 450 nm. Candidate peptides that show a high exchange yield (preferably higher than 50%, most preferred higher than 75%) are generally preferred for a generation and production of antibodies or fragments thereof, and/or T cell receptors or fragments thereof, as they show sufficient avidity to the MHC molecules and prevent dissociation of the MHC complexes.

Row | Substance | Peptide exchange (MHC class I binding score, peptide exchange yield)
1 | 75 (EMIENIQSV; listed as Homo sapiens) [compound 75] | “++” (≥20% = ++)
2 | 36 (GLLESPSIFNFTA; listed as Homo sapiens) [compound 36] | “+++” (≥50 = +++)
3 | 184 (SLLDENNVSSYL; listed as Homo sapiens) [compound 184] | “+++” (≥50 = +++)
4 | 23 (FLDANGHFV; listed as Homo sapiens) [compound 23] | “+++” (≥50 = +++)
5 | 183 (TLQEVVTGV; listed as Homo sapiens) [compound 183] | “+++” (≥50 = +++)
6 | 8 (ALMLQGVDLL; listed as Homo sapiens) [compound 8] | “+++” (≥50 = +++)
7 | 110 (LLGELPRLLLL; listed as Homo sapiens) [compound 110] | “+++” (≥50 = +++)
8 | 175 (TLLGGKEAQALGV; listed as Homo sapiens) [compound 175] | “+++” (≥50 = +++)
9 | 51 (QVWEIQHTV; listed as Homo sapiens) [compound 51] | “++” (≥20% = ++)
10 | 70 (MISELEVRL; listed as Homo sapiens) [compound 70] | “+++” (≥50 = +++)
11 | 43 (TLDAAQPRV; listed as Homo sapiens) [compound 43] | “++” (≥20% = ++)
12 | 126 (TLAKYLMEL; listed as Homo sapiens) [compound 126] | “+++” (≥50 = +++)
13 | 69 (GMLNEAEGKAIKL; listed as Homo sapiens) [compound 69] | “++” (≥20% = ++)
14 | 84 (SMVEDITGLRL; listed as Homo sapiens) [compound 84] | “+++” (≥50 = +++)
15 | 63 (KLFSILSTV; listed as Homo sapiens) [compound 63] | “++” (≥20% = ++)
16 | 157 (SLIERDLKL; listed as Homo sapiens) [compound 157] | “+++” (≥50 = +++)
17 | 16 (VLVDQSWVL; listed as Homo sapiens) [compound 16] | “+++” (≥50 = +++)
18 | 137 (QLTEIKPLL; listed as Homo sapiens) [compound 137] | “+++” (≥50 = +++)
19 | 103 (FLFGYPKRL; listed as Homo sapiens) [compound 103] | “++” (≥20% = ++)
20 | 178 (YLFREPATI; listed as Homo sapiens) [compound 178] | “++” (≥20% = ++)
21 | 108 (SLAELVPGVGGI; listed as Homo sapiens) [compound 108] | “+++” (≥50 = +++)

Row | Substance | Peptide exchange (MHC class I binding score, peptide exchange yield)
22 | 91 (TVDVATPSV; listed as Homo sapiens) [compound 91] | “+++” (≥50 = +++)
23 | 50 (TLMAEMHVV; listed as Homo sapiens) [compound 50] | “+++” (≥50 = +++)
24 | 97 (ALWWGVVTV; listed as Homo sapiens) [compound 97] | “++” (≥20% = ++)
25 | 90 (GLLKPGLNVVL; listed as Homo sapiens) [compound 90] | “+++” (≥50 = +++)
26 | 61 (KLLKLFQGV; listed as Homo sapiens) [compound 61] | “+++” (≥50 = +++)
27 | 152 (KLLAVIHEL; listed as Homo sapiens) [compound 152] | “++” (≥20% = ++)
28 | 177 (ALLQGAIESV; listed as Homo sapiens) [compound 177] | “+++” (≥50 = +++)
29 | 162 (KLMDYIDEL; listed as Homo sapiens) [compound 162] | “+++” (≥50 = +++)
30 | 190 (AMAEMVLQV; listed as Homo sapiens) [compound 190] | “+++” (≥50 = +++)
31 | 171 (RLQETEGMVAV; listed as Homo sapiens) [compound 171] | “++” (≥20% = ++)
32 | 166 (GLLEARGILGL; listed as Homo sapiens) [compound 166] | “+++” (≥50 = +++)
33 | 6 (FLAELPGSLSL; listed as Homo sapiens) [compound 6] | “+++” (≥50 = +++)
34 | 52 (ALDSSNSMQTI; listed as Homo sapiens) [compound 52] | “++” (≥20% = ++)
35 | 182 (SLNKWIFTV; listed as Homo sapiens) [compound 182] | “++++” (≥75% = ++++)
36 | 28 (ALTEIQEFI; listed as Homo sapiens) [compound 28] | “++++” (≥75% = ++++)
37 | 117 (TLQPVDNSTISL; listed as Homo sapiens) [compound 117] | “++” (≥20% = ++)
38 | 191 (QLFSEIHNL; listed as Homo sapiens) [compound 191] | “++++″ (≥75% = ++++)
39 | 86 (KVFPGKISV; listed as Homo sapiens) [compound 86] | “++” (≥20% = ++)
40 | 92 (WIDDTSAFV; listed as Homo sapiens) [compound 92] | “+++” (≥50 = +++)
41 | 113 (ILYDLQQNL; listed as Homo sapiens) [compound 113] | “++” (≥20% = ++)
42 | 115 (SLFDVSHML; listed as Homo sapiens) [compound 115] | “+++” (≥50 = +++)

Row | Substance | Peptide exchange (MHC class I binding score, peptide exchange yield)
43 | 169 (YLAHFIEGL; listed as Homo sapiens) [compound 169] | “+++” (≥50 = +++)
44 | 154 (KLPSETIFVGC; listed as Homo sapiens) [compound 154] | “+++” (≥50 = +++)
45 | 87 (LLFDAPDLRL; listed as Homo sapiens) [compound 87] | “+++” (≥50 = +++)
46 | 140 (LLNEILEQV; listed as Homo sapiens) [compound 140] | “+++” (≥50 = +++)
47 | 95 (AILDAHIEV; listed as Homo sapiens) [compound 95] | “++++” (≥75% = ++++)
48 | 170 (ALAGGITMV; listed as Homo sapiens) [compound 170] | “+++” (≥50 = +++)
49 | 29 (QMLDVAIRV; listed as Homo sapiens) [compound 29] | “+++” (≥50 = +++)
50 | 66 (GLDDGPDFL; listed as Homo sapiens) [compound 66] | “++” (≥20% = ++)
51 | 79 (SLAADQLLKL; listed as Homo sapiens) [compound 79] | “++” (≥20% = ++)
52 | 125 (KLGDFGLLVEL; listed as Homo sapiens) [compound 125] | “++++” (≥75% = ++++)
53 | 56 (VLFTDEGVPKFL; listed as Homo sapiens) [compound 56] | “++” (≥20% = ++)
54 | 53 (FLLGSEIKL; listed as Homo sapiens) [compound 53] | “+++” (≥50 = +++)
55 | 153 (ILFSEDSTKLFV; listed as Homo sapiens) [compound 153] | “+++” (≥50 = +++)
56 | 187 (GLHNVVYGI; listed as Homo sapiens) [compound 187] | “+++” (≥50 = +++)
57 | 93 (SLQELRLLL; listed as Homo sapiens) [compound 93] | “++++” (≥75% = ++++)
58 | 139 (VLLNEILEQV; listed as Homo sapiens) [compound 139] | “+++” (≥50 = +++)
59 | 163 (RLLHEVQEL; listed as Homo sapiens) [compound 163] | “+++” (≥50 = +++)
60 | 15 (LQLDKEFQL; listed as Homo sapiens) [compound 15] | “+++” (≥50 = +++)
61 | 48 (FLDASDPAL; listed as Homo sapiens) [compound 48] | “++” (≥20% = ++)

From patent publication US10513547B2, “Peptides and combination of peptides and scaffolds thereof for use in immunotherapy against colorectal carcinoma (CRC) and other cancers” (Immatics Biotechnologies GmbH, priority 2015, dated 2019)
